Measured values published in PMC7020397 (Toxins, 2020).
Ends that are not written are not given here.

B1: azemiopsin (peptide)
chain: DNWWPKPPHQGPRPPRPRPKP
modifications: not fully specified
notes: source: synthetic peptide

Columns and labels:
[1] = target: muscle-type Torpedo nAChR (Torpedo); experiment: competition with α-bungarotoxin
human neuronal α7 nAChR = human neuronal α7 nAChR (human, UniProt P36544 23-502); experiment: competition with α-bungarotoxin
Chain of human neuronal α7 nAChR (P36544 23-502): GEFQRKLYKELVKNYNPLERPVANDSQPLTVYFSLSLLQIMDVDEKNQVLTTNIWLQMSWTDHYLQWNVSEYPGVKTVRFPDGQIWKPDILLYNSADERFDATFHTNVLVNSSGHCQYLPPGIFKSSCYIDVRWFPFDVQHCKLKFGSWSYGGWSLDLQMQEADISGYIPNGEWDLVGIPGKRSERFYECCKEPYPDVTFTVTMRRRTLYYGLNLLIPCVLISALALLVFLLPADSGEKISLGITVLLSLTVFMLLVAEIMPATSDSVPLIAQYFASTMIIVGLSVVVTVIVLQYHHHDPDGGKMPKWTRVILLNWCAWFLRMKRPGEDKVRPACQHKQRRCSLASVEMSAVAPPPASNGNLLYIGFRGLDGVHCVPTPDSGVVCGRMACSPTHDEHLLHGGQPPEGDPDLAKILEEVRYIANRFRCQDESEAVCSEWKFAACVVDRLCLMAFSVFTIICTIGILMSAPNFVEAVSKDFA

Chain of muscle-type Torpedo nAChR (Torpedo) (P02710 25-461 limits assumed, chain 1 of 4): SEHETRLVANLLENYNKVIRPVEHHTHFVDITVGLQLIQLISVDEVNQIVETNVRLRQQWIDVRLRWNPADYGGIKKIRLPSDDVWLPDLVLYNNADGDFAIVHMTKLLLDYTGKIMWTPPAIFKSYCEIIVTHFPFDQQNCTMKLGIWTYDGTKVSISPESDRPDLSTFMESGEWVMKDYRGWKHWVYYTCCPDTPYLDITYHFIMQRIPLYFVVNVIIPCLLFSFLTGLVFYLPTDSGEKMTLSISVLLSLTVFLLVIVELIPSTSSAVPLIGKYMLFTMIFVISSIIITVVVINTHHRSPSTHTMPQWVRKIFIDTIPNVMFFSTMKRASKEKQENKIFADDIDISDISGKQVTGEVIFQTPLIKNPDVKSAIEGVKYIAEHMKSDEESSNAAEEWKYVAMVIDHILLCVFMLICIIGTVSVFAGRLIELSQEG
Chain of muscle-type Torpedo nAChR (Torpedo) (P02712 25-493 limits assumed, chain 2 of 4, further chain): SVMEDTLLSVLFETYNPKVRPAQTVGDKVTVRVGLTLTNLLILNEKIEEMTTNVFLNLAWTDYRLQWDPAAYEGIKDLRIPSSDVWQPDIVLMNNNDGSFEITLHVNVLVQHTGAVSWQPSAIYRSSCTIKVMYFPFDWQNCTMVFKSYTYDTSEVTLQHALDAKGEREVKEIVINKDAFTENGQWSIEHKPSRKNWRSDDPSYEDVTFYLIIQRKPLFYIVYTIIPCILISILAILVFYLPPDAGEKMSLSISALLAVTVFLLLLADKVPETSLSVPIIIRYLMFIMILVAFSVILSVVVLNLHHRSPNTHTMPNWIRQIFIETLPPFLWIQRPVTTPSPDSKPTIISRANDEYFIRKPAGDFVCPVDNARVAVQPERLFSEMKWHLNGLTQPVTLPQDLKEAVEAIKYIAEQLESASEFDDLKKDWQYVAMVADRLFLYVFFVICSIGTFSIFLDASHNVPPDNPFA
Chain of muscle-type Torpedo nAChR (Torpedo) (P02714 18-506 limits assumed, chain 3 of 4, further chain): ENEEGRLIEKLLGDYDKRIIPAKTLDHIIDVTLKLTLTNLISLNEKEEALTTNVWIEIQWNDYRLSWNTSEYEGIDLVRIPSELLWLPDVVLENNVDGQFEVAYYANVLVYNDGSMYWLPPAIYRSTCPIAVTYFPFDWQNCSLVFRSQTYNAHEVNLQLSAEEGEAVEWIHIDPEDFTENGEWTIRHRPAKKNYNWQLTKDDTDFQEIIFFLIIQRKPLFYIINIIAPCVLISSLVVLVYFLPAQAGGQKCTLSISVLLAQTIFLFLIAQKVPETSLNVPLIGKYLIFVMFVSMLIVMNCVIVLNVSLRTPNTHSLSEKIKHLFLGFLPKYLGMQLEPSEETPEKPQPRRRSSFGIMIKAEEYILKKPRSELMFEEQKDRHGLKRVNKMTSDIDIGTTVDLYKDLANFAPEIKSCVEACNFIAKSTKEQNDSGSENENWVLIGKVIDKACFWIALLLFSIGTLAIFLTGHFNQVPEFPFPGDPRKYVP
Chain of muscle-type Torpedo nAChR (Torpedo) (P02718 22-522 limits assumed, chain 4 of 4, further chain): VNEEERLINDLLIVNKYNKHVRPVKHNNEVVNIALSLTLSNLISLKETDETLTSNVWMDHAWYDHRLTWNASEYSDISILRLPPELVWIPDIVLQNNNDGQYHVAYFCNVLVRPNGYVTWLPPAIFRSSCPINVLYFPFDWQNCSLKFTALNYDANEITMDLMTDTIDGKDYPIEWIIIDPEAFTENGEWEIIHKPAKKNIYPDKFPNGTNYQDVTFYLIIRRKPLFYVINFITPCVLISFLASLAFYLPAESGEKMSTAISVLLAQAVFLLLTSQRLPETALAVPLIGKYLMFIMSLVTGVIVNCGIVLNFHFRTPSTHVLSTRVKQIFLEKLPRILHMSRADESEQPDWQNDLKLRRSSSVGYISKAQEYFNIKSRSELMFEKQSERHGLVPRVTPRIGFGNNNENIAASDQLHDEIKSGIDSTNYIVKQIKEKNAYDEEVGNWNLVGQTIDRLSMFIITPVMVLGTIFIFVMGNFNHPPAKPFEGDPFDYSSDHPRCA

Molecule | IC50 [1] [nM] | IC50 (human neuronal α7 nAChR) [nM]
OSK-1 (from UniProt P55896 1-38) (peptide) | 500 | –
spinoxin (from UniProt P84094 1-34) (peptide) | 500 | –
B1 | 180 | 22000
